The data set concerns the molecule itself. The experiment in a line: native gel electrophoresis, self-assembly.

Data on 2 proteins can be found in patent US20240252606A1 (CHANGCHUN BCHT BIOTECHNOLOGY, published 2024).

B1: lysine-modified norovirus capsid P protein PP-3K (other)
chain: MGKPFSVPILTVEEMTNSRFPIPLEKLFTGPSSAFVVQPQNGRCTTDGVLLGTTQLSPVNICTFRGDVTHIAGKTQNYTMNLASQNWNNYDPTEEIPAPLGTPDFVGRIQGVLTQTTRRDGSTRGHKATVSTGSVHFTPKLGSVQFSTDTSKNDFETGQNTRFTPVGVVQDGKSTTHQNEPQQWVLPDYSGRDSHNVHLAPAVAPTFPGEQLLFFRSTMPGCSGYPNMNLDCLLPQEWVQHFYQESAPAQSDVALLRFVNPDTGRVLFECKLHKSGYVTVAHTGQHDLVIPPNGYFRFDSWVNQFYTLAPMGNGAGRRRAL
notes: self-assembles into dodecamers and tetracosamers
B1: the binding result is given as “binds”.

B2: cysteine-modified norovirus capsid P protein PP-3C (other)
chain: MGKPFSVPILTVEEMTNSRFPIPLEKLFTGPSSAFVVQPQNGRCTTDGVLLGTTQLSPVNICTFRGDVTHIAGCQNYTMNLASQNWNNYDPTEEIPAPLGTPDFVGRIQGVLTQTTRRDGSTRGHKATVSTGSVHFTPKLGSVQFSTDTCNDFETGQNTRFTPVGVVQDCSTTHQNEPQQWVLPDYSGRDSHNVHLAPAVAPTFPGEQLLFFRSTMPGCSGYPNMNLDCLLPQEWVQHFYQESAPAQSDVALLRFVNPDTGRVLFECKLHKSGYVTVAHTGQHDLVIPPNGYFRFDSWVNQFYTLAPMGNGAGRRRAL
notes: as for B1
On to B2, for which the binding result is “binds”.
